{"source": "the DeepSol protein solubility set"}
{"test": "soluble on expression in E. coli; label from the status in PepcDB or PDB records"}
{"sequence": "MFKKVLGLRHWNNNVVKIPPPAAESGANASDVVVDTPEPYERILCQKILMGISTIDIIRNAIIKSCEQLNIEKERINELNEQNDKARSSLKSLVEFITEIGTTSSDIGCRMGDLNTSLTQINACIKEIQKIANQTNLIAINSAIEAARVGDAGRGFSVISKEVKNLSEDVKHSSKSVSTLTSVIKDNTARVSEVLDNQQPVIDNITTNINQIVESIGIVIDKSLSMKSVMQYISTVQFLNIVKVDHVIWKMEVYKLLLNKDINSKITMHDQCRLGKWYYGFEGQQFSNYYSFRSLEAPHKEVHTAGHSALNYFAAGDMNAMSQELDRMERSSNEVVNQLEMLAVDLLKETTL", "soluble on expression in E. coli": "not soluble"}
{"sequence": "MAEITEKVLKKPNAIPDVFERKGGSAPTATHYCAGCGHGIIHKLMAEAIDELEIQDRCVLISPVGCAVFAYYYFDCGNIQVAHGRAPAVGTGVSRAEDNAIVMSYQGDGDLASIGLNETIQAANRGEKMAVFFVNNTVYGMTGGQMAPTTLIGEKTVTCQTGRDPRFAGYPIHMCELLSSLKAPVFIERVSVSDIAHIRKAKRAIKKALEIQRDGKGYAFVEILSPCPTNLRQDANAAQKFINEEMEKEFPLQNFRDRSAEVETLNRGESDFSKECLDNIFEVNSKGAEDPSEDLSFE", "soluble on expression in E. coli": "not soluble"}
{"sequence": "MIQVENLTKTINNQMILEDISIDIEKGKLTSLIGPNGAGKSTLLSAICRLIRFENGEVKIDGQLMSDYKNNDLSKKISILKQTNHTEMNITVEQLVNFGRFPYSKGRLTKEDHDIVNDALDLLQLQDIRNRNIKSLSGGQRQRAYIAMTIAQDTEYILLDEPLNNLDMKHAVQIMQTLKMLAHKMNKAIVIVLHDINFASCYSDQIVALKNGQLVKSDLKDNVIQSSVLSDLYDMNIQIEHIRNQRICLYFKD", "soluble on expression in E. coli": "not soluble"}
{"sequence": "MSLAAVQVVGSWPSVQPREAPREAIPERGNGFRLLSARLCALRPDDSSSARTEIHLLFDQLISENYSEGSGVAPEDVSALLVQACRLVPLNQNHLVSKVSQLIHHLLNRLQVIVDEQHLDFLLAYTISAIHQCSSWTHREILQALAALVYCNGSKCQKYLPELLGNTGLLMKLSDLAQSDPEVRRAAVHCMANLCLSVPGQPYLEEPYQNVCFQAFLTILQSPKSSDMDDITFCMLLQNALKGIQSLLNGGRMKLTQTDELGALLAVLKKFMFHGLPGLNIEMPTVLYPTPLPQYDGRTPIKEGHHHHHH", "soluble on expression in E. coli": "not soluble"}
{"sequence": "MLNTTFANAKFANPFMNASGVHCMTIEDLEELKASQAGAYITKSSTLEKREGNPLPRYVDLELGSINSMGLPNLGFDYYLDYVLKNQKENAQEGPIFFSIAGMSAAENIAMLKKIQESDFSGITELNLSCPNVPGKPQLAYDFEATEKLLKEVFTFFTKPLGVKLPPYFDLVHFDIMAEILNQFPLTYVNSVNSIGNGLFIDPEAESVVIKPKDGFGGIGGAYIKPTALANVRAFYTRLKPEIQIIGTGGIETGQDAFEHLLCGATMLQIGTALHKEGPAIFDRIIKELEEIMNQKGYQSIADFHGKLKSL", "soluble on expression in E. coli": "soluble"}
{"sequence": "KMKNWIKTVCFLLWTCVMCTACIDDDVEEGTVDLQTGESIPVFSVVMDDGQIITSETLKGEVSLIVFFHTGCPDCRKELPVLQKIYTDYGRRIRMVCISREESSAEIVRYWDENHLTLPYSAQENRTVYYQFAKSGIPRVYVIDKELVIRSVFTDNPLASYEDLAEAITASL", "soluble on expression in E. coli": "not soluble"}
{"sequence": "MACRQEPQPQGPPPAAGAVASYDYLVIGGGSGGLASARRAAELGARAAVVESHKLGGTCVNVGCVPKKVMWNTAVHSEFMHDHADYGFPSCEGKFNWRVIKEKRDAYVSRLNAIYQNNLTKSHIEIIRGHAAFTSDPKPTIEVSGKKYTAPHILIATGGMPSTPHESQIPGASLGITSDGFFQLEELPGRSVIVGAGYIAVEMAGILSALGSKTSLMIRHDKVLRSFDSMISTNCTEELENAGVEVLKFSQVKEVKKTLSGLEVSMVTAVPGRLPVMTMIPDVDCLLWAIGRVPNTKDLSLNKLGIQTDDKGHIIVDEFQNTNVKGIYAVGDVCGKALLTPVAIAAGRKLAHRLFEYKEDSKLDYNNIPTVVFSHPPIGTVGLTEDEAIHKYGIENVKTYSTSFTPMYHAVTKRKTKCVMKMVCANKEEKVVGIHMQGLGCDEMLQGFAVAVKMGATKADFDNTVAIHPTSSEELVTLR", "soluble on expression in E. coli": "soluble"}
{"sequence": "MGSDKIHHHHHHMKQIIDIENWERKENFNFFRHFQNPQLSITSEVECGGARQRAKAAGQSFFLHYLYAVLRAANEIPEFRYRIDPDGRVVLYDTIDMLSPIKIKENGKFFTTRFPYHNDFDTFYQEARLIIDAIPEDGDPYAAENEEVADGDYGLILLSATPDLYFTSITGTQEKRSGNNYPLLNAGKAIIREGRLVMPIAMTIHHGFIDGHHLSLFYKKVEDFLK", "soluble on expression in E. coli": "not soluble"}
